US20250002564A1 (HOSPITAL FOR SICK CHILDREN, published 2025)
Where a chain is given by its changes, count along the chain named.

B1: mAb 46 (antibody, V domains shown)
VH: EVQLLESGGGLVQPGRSLRLSCAASGFTFSSYAMSWVRQAPGKGLEWVSTIYSGGSTYYADSVKGRFTISRDNSKNTLYLQMNSLRAEDTAVYYCARGDSRDAFDIWGQGTMVTVSS
VL: DIQMTQSPSSLSASVGDRVTITCRASQSISSWLAWYQQKPGKAPKLLIYDASNLETGVPSRFSGSGSGTDFTLTISSLQPEDFATYYCQQSYSTPFTFGPGTKVDIKR
notes: also called IgG 46; Antibody 46
B2: mAb 82 (antibody, V domains shown)
VH: QVQLVQSGAEVKKPGASVKVSCKASGGSFSTSAFYWVRQAPGQGLEWMGWINPYTGGTNYAQKFQGRVTMTRDTSTSTVYMELSSLRSEDTAVYYCARSRALYGSGSYFDYWGQGTLVTVSS
VL: B1 VL with S28V, S31N, W32Y, Y92F, T94P, F96P, P100Q, K103R, V104L, D105E
notes: also called IgG 82; Antibody 82
B3: mAb 324 (antibody, V domains shown)
VH: QVQLVQSGAEVKKPGASVKVSCKASGGTFNNYGISWVRQAPGQGLEWMGWMNPNSGNTGYAQKFQGRVTMTRDTSTSTVYMELSSLRSEDTAVYYCARVGDYGDYIVSPFDLWGRGTLVTVSS
VL: B1 VL with S30T, S31T, W32Y, A34N, F96P, P100Q, D105E
notes: also called IgG 324; Antibody 324
B4: mAb 52 (antibody, V domains shown)
VH: QVQLVQSGAEVKKPGSSVKVSCKASGYTFTSYGISWVRQAPGQGLEWMGGIIPMFGTTNYAQKFQGRVTITADKSTSTAYMELSSLRSEDTAVYYCARDRGDTIDYWGQGTLVTVSS
VL: DIQMTQSPSSLSASVGDRVTITCRASQGISNNLNWYQQKPGKAPKLLIYAASSLESGVPSRFSGSGSGTDFTLTISSLQPEDFATYYCQQGNGFPLTFGPGTKVDIKR
notes: also called IgG 52; Antibody 52
B5: mAb 160 (antibody, V domains shown)
VH: QVQLVQSGAEVKKPGASVKVSCKASGYTFTGHDMHWVRQAPGQGLEWMGIINPSGGSTSYAQKFQGRVTMTRDTSTSTVYMELSSLRSEDTAVYYCARANSLRYYYGMDVWGQGTMVTVSS
VL: DIQMTQSPSSLSASVGDRVTITCRASQSVSSWLAWYQQKPGKAPKLLIYAASSLQSGVPSRFSGSGSGTDFTLTISSLQPEDFATYYCQQGYTTPYTFGQGTKLEIKR
notes: also called IgG 160; Antibody 160
B6: mAb 349 (antibody, V domains shown)
VH: EVQLLESGGGLVQPGGSLRLSCAASGFTFSNYGMHWVRQAPGKGLEWVSGISSAGSITNYADSVKGRFTISRDNSKNTLYLQMNSLRAEDTAVYYCAGNHAGTTVTSEYFQHWGQGTLVTVSS
VL: B1 VL with A51T, S93T, F96W, P100Q, K103R, V104L, D105E
notes: also called IgG 349; Antibody 349
B7: mAb 64 (antibody, V domains shown)
VH: EVQLLESGGGLVQPGGSLRLSCAASGFPFSQHGMHWVRQAPGKGLEWVSAIDRSGSYIYYADSVKGRFTISRDNSKNTLYLQMNSLRAEDTAVYYCARDTYGGKVTYFDYWGQGTLVTVSS
VL: B1 VL with S28G, W32H, S91T, F96W, P100Q, D105E
notes: also called IgG 64; Antibody 64
B8: mAb 158 (antibody, V domains shown)
VH: QVQLVQSGAEVKKPGASVKVSCKASGYTFTGYYMHWVRQAPGQGLEWMGWINPLNGGTNFAPKFQGRVTMTRDTSTSTVYMELSSLRSEDTAVYYCARDPGGSYSNDAFDIWGQGTLVTVSS
VL: B4 VL with G28S, N31R, N32Y, A50D, S53N, G91A, G93S, P100G
notes: also called IgG 158; Antibody 158
B9: mAb 56 (antibody, V domains shown)
VH: QVQLVQSGAEVKKPGASVKVSCKASGYTFTSYGISWVRQAPGQGLEWMGWISAYNGNTNYAQKLQGRVTMTRDTSTSTVYMELSSLRSEDTAVYYCARDIGPIDYWGQGTLVTVSS
VL: B1 VL with S28G, W32Y, E55Q, T56S, S91A, Y92N, T94F, F96S, P100Q, D105E
notes: also called IgG 56; Antibody 56
B10: mAb 108 (antibody, V domains shown)
VH: QVQLVQSGAEVKKPGASVKVSCKASGYIFSRYAIHWVRQAPGQGLEWMGWMNPISGNTDYAPNFQGRVTMTRDTSTSTVYMELSSLRSEDTAVYYCAKDGSQLAYLVEYFQHWGQGTLVTVSS
VL: B1 VL with S28V, S30T, S31N, W32N, N53T, S93T, T94F, F96Y, P100Q, D105E
B11: mAb 254 (antibody, V domains shown)
VH: EVQLLESGGGLVQPGGSLRLSCAASGFTFSSSAMHWVRQAPGKGLEWVSAIGTGGDTYYADSVKGRFTISRDNSKNTLYLQMNSLRAEDTAVYYCAREGDGYNFYFDYWGQGTLVTVSS
VL: DIQMTQSPSSLSASVGDRVTITCRASQGISSYLAWYQQKPGKAPKLLIYDASSLQIGVPSRFSGSGSGTDFTLTISSLQPEDFATYYCLQSYSTPPWTFGQGTKVEIKR
notes: also called IgG 254; Antibody 254
B12: mAb 178 (antibody, V domains shown)
VH: QVQLVQSGAEVKKPGASVKVSCKASGYTFTDYHMHWVRQAPGQGLEWMGWINPNSGGTNYAQKFQGRVTMTRDTSTSTVYMELSSLRSEDTAVYYCARDISSWYEITKFDPWGQGTLVTVSS
VL: EIVMTQSPATLSVSPGERATLSCKASQSVSGTYLAWYQQKPGQAPRLLIYGASTRATGIPARFSGSGSGTEFTLTISSLQSEDFAVYYCLQTHSYPPTFGQGTKVEIKR
notes: also called IgG 178; Antibody 178
B13: mAb 128 (antibody, V domains shown)
VH: QVQLVQSGAEVKKPGASVKVSCKASGYTFTHYYMHWVRQAPGQGLEWMGIINPSSSSASYSQKFQGRVTMTRDTSTSTVYMELSSLRSEDTAVYYCARDGRYGSGSYPFDYWGQGTLVTVSS
VL: DIQMTQSPSSLSASVGDRVTITCRASQNISRYLNWYQQKPGKAPKLLIYDASNLETGVPSRFSGSGSGTDFTLTISSLQPEDFATYYCQQANGFPPTFGQGTKLEIKR
B14: mAb 120 (antibody, V domains shown)
VH: QVQLVQSGAEVKKPGASVKVSCKASGYTFTSYDINWVRQAPGQGLEWMGMIDPSGGSTSYAQKFQGRVTMTRDTSTSTVYMELSSLRSEDTAVYYCAKDFGGGTRYDYWYFDLWGRGTLVTVSS
VL: EIVMTQSPATLSVSPGERATLSCRASQSVSSRYLAWYQQKPGQAPRLLIYGASTRATGIPARFSGSGSGTEFTLTISSLQSEDFAVYYCQQYYTTPRTFGQGTRLEIKR
notes: also called IgG 120; Antibody 120
B15: 4A8 IgG (antibody, V domains shown)
VH: EVQLVESGAEVKKPGASVKVSCKVSGYTLTELSMHWVRQAPGKGLEWMGGFDPEDGETMYAQKFQGRVTMTEDTSTDTAYMELSSLRSEDTAVYYCATSTAVAGTPDLFDYYYGMDVWGQGTTVTVSS
VL: EIVMTQSPLSSPVTLGQPASISCRSSQSLVHSDGNTYLSWLQQRPGQPPRLLIYKISNRFSGVPDRFSGSGAGTDFTLKISRVEAEDVGVYYCTQATQFPYTFGQGTKVDIK
notes: also called IgG 4A8

Molecular target: T1, SARS-CoV-2 receptor binding domain (RBD), wild type, His-tagged (SARS-CoV-2, UniProt P0DTC2 319-541)
T1 construct: domain: RBD; also called His-tagged RBD; BEI NR52309
Experiment: BLI competition on His-tagged RBD, after 1st Ab 82

Compared with B1, B2 is lower in “RBD binding of 2nd Ab after 1st Ab (heat map)” value (“RBD binding of 2nd Ab” for short): 1.2 for the first, 0.4 for the second.

First: B3
Second: B4
The “RBD binding of 2nd Ab” value of the first is lower: 0.2 for the first, 0.8 for the second.

Molecular target: T1, SARS-CoV-2 receptor binding domain …
Experiment: method and format not given

Going from B5 to B1, the Kd rises from 7.7 nM to 83 nM (11-fold).

B6 and B7 are within 1.5-fold of each other in Kd: 74 nM for the first, 97 nM for the second.

B2 and B8 are within 1.5-fold of each other in Kd: 206 nM for the first, 172 nM for the second.

Compared with B9, B10 is 3.1-fold higher in Kd: 23 nM for the first, 72 nM for the second.

B3 and B11 are within 1.5-fold of each other in Kd: 111 nM for the first, 127 nM for the second.

B12 and B13 are within 1.5-fold of each other in Kd: 72 nM for the first, 57 nM for the second.

B14 gave a Kd of 24 nM.

Molecular target: T1, SARS-CoV-2 receptor binding domain …
Experiment: BLI competition on His-tagged RBD, after 1st Ab 298

Going from B1 to B2, the “RBD binding of 2nd Ab” value falls from 1.7 to 0.5.

First: B3
Second: B4
The “RBD binding of 2nd Ab” value of the first is lower: 0.2 for the first, 1.4 for the second.

Molecular target: T1, SARS-CoV-2 receptor binding domain …
Experiment: method and format not given
Remark: another data set of the same source

Compared with B5, B1 is 11-fold higher in Kd: 7.7 nM for the first, 83 nM for the second. The first binds more tightly here.

B6 and B7 are within 1.5-fold of each other in Kd: 74 nM for the first, 97 nM for the second.

B2 and B8 are within 1.5-fold of each other in Kd: 206 nM for the first, 172 nM for the second.

Going from B9 to B10, the Kd rises from 23 nM to 72 nM (3.1-fold). The first binds more tightly here.

B3 and B11 are within 1.5-fold of each other in Kd: 111 nM for the first, 127 nM for the second.

B12 and B13 are within 1.5-fold of each other in Kd: 72 nM for the first, 57 nM for the second.

B14 was tested, and the Kd was 24 nM.

Molecular target: T1, SARS-CoV-2 receptor binding domain …
Experiment: BLI competition on His-tagged RBD, after 1st Ab 236

First: B1
Second: B2
The “RBD binding of 2nd Ab” value of the first is higher: 1.7 for the first, 0.6 for the second.

Going from B3 to B4, the “RBD binding of 2nd Ab” value rises from 0.3 to 1.5.

Molecular target: T1, SARS-CoV-2 receptor binding domain …
Experiment: BLI competition on His-tagged RBD, after 1st Ab 324

First: B1
Second: B2
The “RBD binding of 2nd Ab” value of the first is higher: 1.7 for the first, 0.8 for the second.

Going from B3 to B4, the “RBD binding of 2nd Ab” value rises from 0.4 to 1.5.

Molecular target: T1, SARS-CoV-2 receptor binding domain …
Experiment: BLI competition on His-tagged RBD, after 1st Ab 52

Going from B1 to B2, the “RBD binding of 2nd Ab” value rises from 0.2 to 0.6.

Going from B3 to B4, the “RBD binding of 2nd Ab” value falls from 1 to 0.4.

Molecular target: T1, SARS-CoV-2 receptor binding domain …
Experiment: BLI competition on His-tagged RBD, after 1st Ab 46

Compared with B1, B2 is higher in “RBD binding of 2nd Ab” value: 0.2 for the first, 1.4 for the second.

First: B3
Second: B4
The “RBD binding of 2nd Ab” value of the first is higher: 1.2 for the first, 0.5 for the second.

Molecular target: T2, SARS-CoV-2 prefusion S ectodomain (Spike trimer), His-tagged (SARS-CoV-2, UniProt P0DTC2 14-1213)
T2 construct: extracellular domain; also called SARS-CoV-2 Spike; S protein
Experiment: BLI, His-tagged Spike on Ni-NTA sensor

B15 gave a Kd of 1.42 nM.

B15 was tested, and the koff was 0.000191 s⁻¹.

B15 was tested, and the kon was 133000 M⁻¹ s⁻¹.

Molecular target: T1, SARS-CoV-2 receptor binding domain …
Experiment: BLI competition on His-tagged RBD, after 1st Ab 80

First: B1
Second: B2
The “RBD binding of 2nd Ab” value of the first is higher: 1.3 for the first, 0.6 for the second.

Compared with B3, B4 is higher in “RBD binding of 2nd Ab” value: 0.1 for the first, 1.3 for the second.
